The text below walks through data of patent US20200040064A1 (OHIO STATE INNOVATION FOUNDATION, published 2020).

This assay deals with T1, protein A on wild type Staphylococcus aureus newman strain bacteria (Staphylococcus aureus (newman strain), UniProt P0A015 37-419).
T1 construct: also called wt S.A; Staphylococcus aureus (wt)
The experiment in a line: flow cytometry, labeled CD64 on wt S. aureus in the absence of rituximab. For orientation: In flow cytometry, cells or beads pass a laser one at a time.

B1: fluorescently labeled human Fcγ receptor CD64 (receptor)
chain: QVDTTKAVITLQPPWVSVFQEETVTLHCEVLHLPGSSSTQWFLNGTATQTSTPSYRITSASVNDSGEYRCQRGLSGRSDPIQLEIHRGWLLLQVSSRVFTEGEPLALRCHAWKDKLVYNVLYYRNGKAFKFFHWNSNLTILKTNISHNGTYHCSGMGKHRYTSAGISVTVKELFPAPVLNASVTSPLLEGNLVTLSCETKLLLQRPGLQLYFSFYMGSKTLRGRNTSSEYQILTARREDSGLYWCEAATEDGNVLKRSPELELQVLGLQLPTP
modifications: fluorescently labeled
For B1, the binding result is recorded as “no binding”.
